Assay results: patent publication US20230265183A1 (MABWELL SHANGHAI BIOSCIENCE, published 2023)
Where two headings read alike, the source gives them in different places. One block for each binder: values may come before it.

Columns and labels:
His-tagged human NECTIN4 [1] = biological target: T1, His-tagged human NECTIN4 (human, UniProt Q96NY8 32-349); experiment: SPR (BIAcore S200), antigen on CAP chip, antibody as analyte, 1:1 fit
T1 construct: Antigen of the BIAcore assay; also called antigen; recombinant NECTIN4 protein; not shown: His tag
T1 sequence: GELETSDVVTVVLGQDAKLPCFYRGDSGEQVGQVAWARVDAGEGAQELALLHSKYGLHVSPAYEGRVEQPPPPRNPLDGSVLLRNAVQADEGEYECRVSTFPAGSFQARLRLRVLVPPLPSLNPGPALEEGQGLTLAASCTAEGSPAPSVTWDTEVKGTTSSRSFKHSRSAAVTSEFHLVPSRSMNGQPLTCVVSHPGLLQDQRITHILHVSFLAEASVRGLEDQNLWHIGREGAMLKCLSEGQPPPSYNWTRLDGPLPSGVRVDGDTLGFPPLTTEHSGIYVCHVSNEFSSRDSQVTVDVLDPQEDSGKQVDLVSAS
Description: Interactions between the antibodies and the antigen were measured using a BIAcore instrument S200 from GE. Referring to the instructions provided in Biotin Capture Kit from GE Healthcare, the analytical channel and the control sample channel on CAP sensor chip were first coupled with antigen i.e. His-tagged human NECTIN4, then samples containing antibodies (diluted 3-fold from an initial concentration of 20 nM respectively and solutions of each antibody of 8 concentrations were obtained totally, and the concentration 0.741 nM was set to be repeated) were allowed to flow through both the analytical channel and the sample channel, and the photoreactions upon antibody-antigen binding were measured. Association constant Kon and dissociation constant Koff and affinity constant KD of each antibody were finally obtained by instrument software fitting (1:1 binding mode) analysis.

[2] = biological target: T2, murine Nectin4 (NP_082169) (murine, UniProt Q8R007 31-508); experiment: FACS on HEK-muNectin4 cells
T2 construct: whole, on cells; also called muNectin4
T2 sequence (looked up): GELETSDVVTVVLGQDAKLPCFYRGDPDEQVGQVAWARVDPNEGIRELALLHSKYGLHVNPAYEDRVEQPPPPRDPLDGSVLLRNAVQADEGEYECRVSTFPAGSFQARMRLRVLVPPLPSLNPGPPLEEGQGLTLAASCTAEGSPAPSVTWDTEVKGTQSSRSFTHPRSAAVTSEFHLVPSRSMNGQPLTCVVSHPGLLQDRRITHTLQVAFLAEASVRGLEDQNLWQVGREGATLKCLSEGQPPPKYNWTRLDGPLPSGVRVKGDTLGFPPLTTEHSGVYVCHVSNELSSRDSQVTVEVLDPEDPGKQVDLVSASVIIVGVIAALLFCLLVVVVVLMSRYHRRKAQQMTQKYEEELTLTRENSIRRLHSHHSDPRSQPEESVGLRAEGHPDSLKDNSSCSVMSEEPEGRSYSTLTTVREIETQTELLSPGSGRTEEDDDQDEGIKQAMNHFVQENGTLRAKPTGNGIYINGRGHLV

human Nectin-4 [3] = biological target: T3, human Nectin-4 (human, UniProt Q96NY8 32-510); experiment: FACS on BT474 cells
T3 construct: whole, on cells; Cell-surface target of the FACS, endocytosis and proliferation assays (CHO-huNectin4 S8 cells, BT474 cells); the assay field says which cells; also called huNectin4; PVRL4
T3 sequence (looked up): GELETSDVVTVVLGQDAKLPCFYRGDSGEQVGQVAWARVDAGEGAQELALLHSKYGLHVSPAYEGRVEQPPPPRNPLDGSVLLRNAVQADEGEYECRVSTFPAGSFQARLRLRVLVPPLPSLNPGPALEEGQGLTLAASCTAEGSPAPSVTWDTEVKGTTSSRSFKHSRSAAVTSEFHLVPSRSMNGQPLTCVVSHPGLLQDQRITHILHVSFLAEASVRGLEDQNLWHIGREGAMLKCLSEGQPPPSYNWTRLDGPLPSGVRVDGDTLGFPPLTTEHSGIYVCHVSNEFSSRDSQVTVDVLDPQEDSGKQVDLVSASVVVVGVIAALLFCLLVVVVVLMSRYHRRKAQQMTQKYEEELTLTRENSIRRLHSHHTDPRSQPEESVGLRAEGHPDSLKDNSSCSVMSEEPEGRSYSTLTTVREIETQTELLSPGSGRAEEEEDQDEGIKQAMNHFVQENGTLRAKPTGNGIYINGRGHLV
Description: (§1) The solutions of different concentrations were added to 384-well plates, 10 µl per well.
(§2) BT474 cells (breast cancer cells) expressing Nectin-4 on the cell surface were collected by centrifugation at 100 g at room temperature for 5 minutes, and then the cells were washed with PBS containing 0.5% BSA once and were centrifuged at 100 g at room temperature for 5 minutes. […] After incubation at 4° C. for 1 hour, fluorescently labeled goat anti-human IgG secondary antibody was added. After continued incubation at 4° C. for 1 hour, mean fluorescence readings of the cell populations were analyzed by a flow cytometer.
(§3) The experiment results of the binding of engineered humanized molecules of the present disclosure to BT474 cells by FACS assay are shown in panels 3B and 3C in FIG. 3 and Tables 6 and 7.

His-tagged human NECTIN4 [4] = biological target: T1, His-tagged human NECTIN4; experiment: ELISA, antibody without cyno serum, plate coated with 0.2 µg/ml antigen, HRP goat anti-human IgG, OD450. The sheet does not say which of the two plates of Example 13 is drawn
His-tagged human NECTIN4 [5] = biological target: T1, His-tagged human NECTIN4; experiment: as above; remark: listed apart in the source
human Nectin-4 [6] = biological target: T3, human Nectin-4; experiment: FACS on BT474 cells; remark: listed apart in the source
Description: as §1, §2

human Nectin-4 [7] = biological target: T3, human Nectin-4; experiment: FACS on BT474 cells; remark: listed apart in the source
Description: as §1, §2, §3

human Nectin-4 [8] = biological target: T3, human Nectin-4; experiment: cell-based or functional assay
human Nectin-4 [9] = biological target: T3, human Nectin-4; experiment: FACS on BT474 cells; remark: listed apart in the source
Description: as §1, §2

Kd (His-tagged human NECTIN4 [1]): 1.14 nM | EC50 [2]: 8.74 µg/mL | EC50 (human Nectin-4 [3]): 0.0528 µg/mL | EC50 (read off the curve) (His-tagged human NECTIN4 [4]): ~0.1 µg/mL
B1: 42D20 hz10 (antibody, V domains shown)
VH: QVQLQESGPGLVKPSETLSLTCTVSGFSLIDYGVSWIRQPPGKGLEWIGVIWGDGKIYYNSVLKSRVTISKDNSKSQVSLKLSSVTAADTAVYYCAKQGGLLFYAMDYWGQGTLVTVSS
VL: DIVMTQSPDSLAVSLGERATINCKSSQSLLNSYSQKNYLAWYQQKPGQPPKLLIYFASTRESGVPDRFSGSGSGTDFTLTISSLQAEDVAVYYCQQHYNTPFTFGAGTKLELKR
notes: Humanized

EC50 (read off the curve) (His-tagged human NECTIN4 [5]): ~0.1 µg/mL | Kd (His-tagged human NECTIN4 [1]): 4.94 nM | EC50 [2]: 2.43 µg/mL | EC50 (human Nectin-4 [6]): 98.8 µg/mL | EC50 (human Nectin-4 [3]): 0.0503 µg/mL | EC50 (human Nectin-4 [7]): 57.2 µg/mL | EC50 (ng/ml), inhibition of proliferation of BT474 cells (human Nectin-4 [8]): 3.37 ng/mL | EC50 (human Nectin-4 [9]): 29.6 µg/mL
B2: Enfortumab (antibody, human IgG1, kappa, V domains shown)
VH: EVQLVESGGGLVQPGGSLRLSCAASGFTFSSYNMNWVRQAPGKGLEWVSYISSSSSTIYYADSVKGRFTISRDNAKNSLSLQMNSLRDEDTAVYYCARAYYYGMDVWGQGTTVTVSS
VL: DIQMTQSPSSVSASVGDRVTITCRASQGISGWLAWYQQKPGKAPKFLIYAASTLQSGVPSRFSGSGSGTDFTLTISSLQPEDFATYYCQQANSFPPTFGGGTKVEIKR
notes: also called control antibody Enfortumab
Percentage of cell killing at the highest concentration (human Nectin-4 [8]): 43.3%
